B1: MMP11 (Enzo) (protein)
chain: FVLSGGRWEKTDLTYRILRFPWQLVQEQVRQTMAEALKVWSDVTPLTFTEVHEGRADIMIDFARYWHGDDLPFDGPGGILAHAFFPKTHREGDVHFDYDETWTIGDDQGTDLLQVAAHEFGHVLGLQHTTAAKALMSAFYTFRYPLSLSPDDCRGVQHLYGQPWPTVTSRTPALG
B2: MMP7 (Enzo) (protein)
chain: YSLFPNSPKWTSKVVTYRIVSYTRDLPHITVDRLVSKALNMWGKEIPLHFRKVVWGTADIMIGFARGAHGDSYPFDGPGNTLAHAFAPGTGLGGDAHFDEDERWTDGSSLGINFLYAATHELGHSLGMGHSSDPNAVMYPTYGNGDPQNFKLSQDDIKGIQKLYGKRSNSRKK
B3: MMP12 (Enzo) (protein)
chain: GPVWRKHYITYRINNYTPDMNREDVDYAIRKAFQVWSNVTPLKFSKINTGMADILVVFARGAHGDFHAFDGKGGILAHAFGPGSGIGGDAHFDEDEFWTTHSGGTNLFLTAVHEIGHSLGLGHSSDPKAVMFPTYKYVDINTFRLSADDIRGIQSLYG
B4: MMP1 (Enzo) (protein)
chain: FVLTEGNPRWEQTHLTYRIENYTPDLPRADVDHAIEKAFQLWSNVTPLTFTKVSEGQADIMISFVRGDHRDNSPFDGPGGNLAHAFQPGPGIGGDAHFDEDERWTNNFREYNLHRVAAHELGHSLGLSHSTDIGALMYPSYTFSGDVQLAQDDIDGIQAIYGRSQNPVQP

Target: T1, indicator molecule containing the cleavable sequence (GPQGIFGQ) with a terminal biotin group connected via a polyethylene glycol spacer/linker, intact
T1 chain: GPQGIFGQ

Row | Protein | reader value at 0.5 µg/ml MMP (lateral flow) [reader units]
1 | B1 | 280
2 | B2 | 373
3 | B3 | 1250
4 | B4 | 478
